Source: publication PMC3077455 (Nature, 2011)
Blank lines part the entries; values can stand above or below the binder they belong to.

B1: Scm3_(83–169) (domain or fragment)
chain: IIPKLTDDEVMERHKLADENMRKVWSNIISKYESIEEQGDLVDLKTGEIVEDNGHIKTLTANNSTKDKRTKYTSVLRDIIDISDEED

How the values were obtained:
[1] = target: single chain Cse4-H4 with Cse4 Met181Ser/Met184Gly (budding yeast | , UniProt P36012;P02309, Met181Ser | Met184Gly); test: ITC
[2] = target: single chain Cse4-H4 with Cse4 Ala189Ser/Ser190Val (budding yeast | , UniProt P36012;P02309, Ala189Ser | Ser190Val); test: ITC
Scm3_(83–169) = target: B1; test: ITC
[3] = target: T1, Scm3 residues 93-169, as it stands in the single-chain molecule scSCH (yeast, UniProt Q12334 93-169); test: NMR structure
T1 sequence: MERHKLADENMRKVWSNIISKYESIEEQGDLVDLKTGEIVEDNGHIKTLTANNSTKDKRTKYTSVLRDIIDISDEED

Binder: B1
fold reduction of the binding affinity against the wild type [1]: 5.5 fold
fold reduction of the binding affinity against the wild type [2]: 9 fold

binding result (Scm3_(83–169)): binds
B2: single chain Cse4-H4 (His6-KK-Cse4_(151–207)-LVPRGS-H4_(45–103)) (complex)
chain: not shown

binding result [3]: binds
B3: Histone H4 residues 42-103, as it stands in the single-chain molecule scSCH (domain or fragment)
chain: not shown
